Target: the molecule itself
Assay: SEC

B1: platelet membrane GMP-140 (P-selectin) (natural protein)
chain: WTYHYSTKAYSWNISRKYCQNRYTDLVAIQNKNEIDYLNKVLPYYSSYYWIGIRKNNKTWTWVGTKKALTNEAENWADNEPNNKRNNEDCVEIYIKSPSAPGKWNDEHCLKKKHALCYTASCQDMSCSKQGECLETIGNYTCSCYPGFYGPECEYVRECGELELPQHVLMNCSHPLGNFSFNSQCSFHCTDGYQVNGPSKLECLASGIWTNKPPQCLAAQCPPLKIPERGNMTCLHSAKAFQHQSSCSFSCEEGFALVGPEVVQCTASGVWTAPAPVCKAVQCQHLEAPSEGTMDCVHPLTAFAYGSSCKFECQPGYRVRGLDMLRCIDSGHWSAPLPTCEAISCEPLESPVHGSMDCSPSLRAFQYDTNCSFRCAEGFMLRGADIVRCDNLGQWTAPAPVCQALQCQDLPVPNEARVNCSHPFGAFRYQSVCSFTCNEGLLLVGASVLQCLATGNWNSVPPECQAIPCTPLLSPQNGTMTCVQPLGSSSYKSTCQFICDEGYSLSGPERLDCTRSGRWTDSPPMCEAIKCPELFAPEQGSLDCSDTRGEFNVGSTCHFSCDNGFKLEGPNNVECTTSGRWSATPPTCKGIASLPTPGVQCPALTTPGQGTMYCRHHPGTFGFNTTCYFGCNAGFTLIGDSTLSCRPSGQWTAVTPACRAVKCSELHVNKPIAMNCSNLWGNFSYGSICSFHCLEGQLLNGSAQTACQENGHWSTTVPTCQAGPLTIQEALTYFGGAVASTIGLIMGGTLLALLRKRFRQKDDGKCPLNPHSHLGTYGVFTNAAFDPSP
  stoichiometry N: 4
